The record followed here is PMC3534766.

The series concerns the target FUS-RRM wild type (Homo sapiens, UniProt P35637 278-385). Description: NMR titration.

Chain of FUS-RRM wild type (P35637 278-385): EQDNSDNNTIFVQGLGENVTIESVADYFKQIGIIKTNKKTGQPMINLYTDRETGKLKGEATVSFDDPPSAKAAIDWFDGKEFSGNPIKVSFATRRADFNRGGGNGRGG

Take TTAGGGTTAGGGTTAGGGTTAGGG (structured_DNA) [24-mer d(TTAGGG)4 (NMR)]: the binding result is “binds”.
